The values below come from patent US20260199502A1, “BINDING MOLECULE” (priority 2022, published 2026).

Series [1] addresses panel of 14 peptides (UU0024, UU0070-UU0078, UU0080-UU0083) comprising the tag moiety. The series is described as follows: SPR affinity of captured scFv against a peptide panel (Example 3). The format is binding. To be noted: SPR single cycle kinetics, peptides 0.16 nM to 100 nM; to most target peptides in the tested panel. Here is the method: Affinity measurements of the IBIIICI mouse scFv and IBIIICI CDR graft scFv variants obtained as described in Examples 1-2 were performed by SPR using a Biacore T200 instrument (GE Healthcare) and single cycle kinetics. Anti-FLAG M2 antibody (Sigma-Aldrich) was immobilized onto a Series S CM5 chip by primary amine coupling using NHS-EDC chemistry according to the manufacturer's instruction, allowing capture of the respective scFv through the FLAG tags provided by the expression vector. A 5-fold dilution series comprising of five concentrations (0.16 nM to 100 nM) of different peptides (Table 2) was sequentially injected over the flow cells, allowing binding to the captured scFv. Following a dissociation phase, regeneration of the surface was accomplished under acidic conditions using 10 mM glycine-HCl at pH 2.1. By subtracting the response curve of a surface having an anti-FLAG antibody immobilized thereto (the reference surface), response unit sensorgrams for all peptides were obtained. Data was analyzed using BIAeval v.3.1 (GE Healthcare).

The nature of series [2]: Melting temperature (Tm) determination by nanoDSF. The class given is physicochemical. Conditions: inflection point #1, 1.0 mg/ml in PBS, 20-95° C. at 1° C./min. The protocol:
In order to evaluate the stability of the purified scFv variants, the melting temperatures were determined by nanoDSF using a Prometheus NT.48 instrument (NanoTemper Inc). The nanoDSF technology measures the intrinsic fluorescence of a protein while it is being subjected to thermal denaturation, thereby characterizing the unfolding of the protein under native conditions.
The six purified IBIIICI CDR graft scFv variants were diluted to 1.0 mg/ml in PBS and loaded into a high sensitivity capillary (NanoTemper, #PR-C006) through capillary force. A melting temperature ramp was set to between 20° C. and 95° C., with heating at 1° C./min. Tryptophan emission was measured at 330 nm and 350 nm, and the calculated ratio was plotted against temperature to obtain melting curves for each variant. Tm values were deduced using the software PR ThermoControl (NanoTemper Inc).
In general terms: Differential scanning fluorimetry follows unfolding on heating by fluorescence.

B1: IBIIICI CDR graft scFv variant NG (wt): original humanized IBIIICI CDR graft scFv, SEQ ID NO:54, NG at positions 62-63 of VH (protein)
scFv: QVQLVQSGAEVKKPGASVKVSCKASGFNIKDFNIHWVRQAPGQGLEWIGRIDPENGDAEYVPKFQGRVTMTRDTSTSTVYMELSSLRSEDTAVYYCTTGSYDLDVEYWGQGTLVTVSSGGGGSGGGGSGGGGSGGGGSDIQMTQSPSSLSASVGDRVTITCHASQNINVWLSWYQQKPGKAPKLLIYKASTLHTGVPSRFSGSGSGTDFTLTISSLQPEDFATYYCQQGQSYPLTFGQGTKLEIK
Consider B1, for which the binding affinity entry in series [1] is recorded as “low nanomolar”. The Tm in series [2] was determined as 63.4 °C.

B2: IBIIICI CDR graft scFv variant QG: humanized scFv point mutated variant, SEQ ID NO:51 (protein)
scFv: QVQLVQSGAEVKKPGASVKVSCKASGFNIKDFNIHWVRQAPGQGLEWIGRIDPEQGDAEYVPKFQGRVTMTRDTSTSTVYMELSSLRSEDTAVYYCTTGSYDLDVEYWGQGTLVTVSSGGGGSGGGGSGGGGSGGGGSDIQMTQSPSSLSASVGDRVTITCHASQNINVWLSWYQQKPGKAPKLLIYKASTLHTGVPSRFSGSGSGTDFTLTISSLQPEDFATYYCQQGQSYPLTFGQGTKLEIK
As to B2, the Tm in series [2] came out at 62.2 °C.

B3: IBIIICI CDR graft scFv variant NA: humanized scFv point mutated variant, SEQ ID NO:53 (protein)
scFv: QVQLVQSGAEVKKPGASVKVSCKASGFNIKDFNIHWVRQAPGQGLEWIGRIDPENADAEYVPKFQGRVTMTRDTSTSTVYMELSSLRSEDTAVYYCTTGSYDLDVEYWGQGTLVTVSSGGGGSGGGGSGGGGSGGGGSDIQMTQSPSSLSASVGDRVTITCHASQNINVWLSWYQQKPGKAPKLLIYKASTLHTGVPSRFSGSGSGTDFTLTISSLQPEDFATYYCQQGQSYPLTFGQGTKLEIK
Consider B3, for which the values for the Tm in series [2] and in series [2] (listed as IBIIICI CDR graft scFv NA) were 60.8 °C and 61 °C, respectively.

B4: IBIIICI CDR graft scFv variant DG: humanized scFv point mutated variant, SEQ ID NO:52 (protein)
scFv: QVQLVQSGAEVKKPGASVKVSCKASGFNIKDFNIHWVRQAPGQGLEWIGRIDPEDGDAEYVPKFQGRVTMTRDTSTSTVYMELSSLRSEDTAVYYCTTGSYDLDVEYWGQGTLVTVSSGGGGSGGGGSGGGGSGGGGSDIQMTQSPSSLSASVGDRVTITCHASQNINVWLSWYQQKPGKAPKLLIYKASTLHTGVPSRFSGSGSGTDFTLTISSLQPEDFATYYCQQGQSYPLTFGQGTKLEIK
For B4, the Tm in series [2] amounted to 62.4 °C.

B5: IBIIICI CDR graft scFv variant GG: humanized scFv point mutated variant, SEQ ID NO:50 (protein)
scFv: QVQLVQSGAEVKKPGASVKVSCKASGFNIKDFNIHWVRQAPGQGLEWIGRIDPEGGDAEYVPKFQGRVTMTRDTSTSTVYMELSSLRSEDTAVYYCTTGSYDLDVEYWGQGTLVTVSSGGGGSGGGGSGGGGSGGGGSDIQMTQSPSSLSASVGDRVTITCHASQNINVWLSWYQQKPGKAPKLLIYKASTLHTGVPSRFSGSGSGTDFTLTISSLQPEDFATYYCQQGQSYPLTFGQGTKLEIK
For the molecule B5, the Tm in series [2] came out at 62.6 °C.

B6: IBIIICI CDR graft scFv variant SG: humanized scFv point mutated variant, SEQ ID NO:49 (protein)
scFv: QVQLVQSGAEVKKPGASVKVSCKASGFNIKDFNIHWVRQAPGQGLEWIGRIDPESGDAEYVPKFQGRVTMTRDTSTSTVYMELSSLRSEDTAVYYCTTGSYDLDVEYWGQGTLVTVSSGGGGSGGGGSGGGGSGGGGSDIQMTQSPSSLSASVGDRVTITCHASQNINVWLSWYQQKPGKAPKLLIYKASTLHTGVPSRFSGSGSGTDFTLTISSLQPEDFATYYCQQGQSYPLTFGQGTKLEIK
Turning to B6, the results for the Tm in series [2] and in series [2] (listed as IBIIICI CDR graft scFv SG) were 64.3 °C and 64 °C, respectively.

B7: IBIIICI mouse scFv: known ancestral mouse scFv binding the peptide tag moiety, SEQ ID NO:25 (protein, listed as Mus musculus)
scFv: EVRLLQSGAALVRPGASVKLSCTASGFNIKDFNIHWVKQRPEQGLEWIGRIDPENGDAEYVPKFQVRATMTTDTSSNTVYLHLSSLTSGDTAVYYCTTGSYDLDVEYWGQGTTLTVSSGGGGSGGGGSGGGGSGGGGSELQMTQSPSSLSASLGDTVTITCHASQNINVWLSWYQQRPGNIPKLLIYKASTLHTGVPSRFRGSGSGTGFTLTISSLQPEDIATYYCQQGQSYPLTFGAGTKLELK
For the molecule B7, the binding affinity result in series [1] was “low nanomolar”.

A word on the Tm: it is the temperature at which the thermal transition is half complete.
